Measured values from publication PMC10801496.
pIC50, pKd: −log10 of the molar value.

Experiments:
[1] = molecular target: human CD47 with His tag (human) (UniProt Q08722); test: ELISA; competition with SIRPa-Fc
[2] = molecular target: CD47 (Homo sapiens) (UniProt Q08722); details: cited from earlier work
Chain of CD47 (Homo sapiens) (Q08722 19-323): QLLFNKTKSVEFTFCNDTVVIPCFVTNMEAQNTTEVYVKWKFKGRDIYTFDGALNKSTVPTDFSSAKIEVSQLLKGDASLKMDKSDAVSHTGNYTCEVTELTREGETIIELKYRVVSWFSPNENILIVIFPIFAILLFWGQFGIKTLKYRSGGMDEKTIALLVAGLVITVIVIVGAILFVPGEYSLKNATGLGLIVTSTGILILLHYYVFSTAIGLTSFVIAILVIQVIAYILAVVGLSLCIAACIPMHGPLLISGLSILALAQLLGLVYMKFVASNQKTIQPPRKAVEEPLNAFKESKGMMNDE

Chain of human CD47 with His tag (human) (Q08722 19-323): as above
Chain of SIRPα (P97797 32-373): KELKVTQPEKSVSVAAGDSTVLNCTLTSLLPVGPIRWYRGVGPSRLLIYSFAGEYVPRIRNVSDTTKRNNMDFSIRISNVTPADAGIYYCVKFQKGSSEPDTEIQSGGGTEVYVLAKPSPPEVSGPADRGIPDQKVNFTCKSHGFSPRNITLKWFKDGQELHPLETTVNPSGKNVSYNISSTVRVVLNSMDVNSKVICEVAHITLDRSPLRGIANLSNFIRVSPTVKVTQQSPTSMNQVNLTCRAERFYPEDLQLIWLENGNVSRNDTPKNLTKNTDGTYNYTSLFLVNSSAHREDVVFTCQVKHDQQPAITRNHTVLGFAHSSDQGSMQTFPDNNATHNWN

| pIC50 [1] | Substance | pKd [2] |
| --- | --- | --- |
| 6.63 | B6H12.2 | – |
| – | SIRPα (from UniProt P97797) | 6.52 |
